# According to PMC11143224, “Flavivirus Zika NS4A protein forms large oligomers in liposomes and in mild detergent” (Scientific Reports, 2024):
# B1: full-length Zika NS4A protein (strain MR-766) (natural protein)
# chain: GAALGVMEALGTLPGHMTERFQEAIDNLAVLMRAETGSRPYKAAAAQLPETLETIMLLGLLGTVSLGIFFVLMRNKGIGKMGFGMVTLGASAWLMWLSEIEPARIACVLIVVFLLLVVLIPEPEKQR
# notes: NS4A of Zika virus strain MR-766, the cut product of the polyprotein (mature NS4A without 2K), 127 residues (1-127); also called ZIKV NS4A; NS4A-FL; not shown: His-tag, N-terminal, kept
# Columns and labels:
# [1] = target: the molecule itself; assay: AUC; sedimentation velocity, most diluted samples (detergent-to-protein ratio 640 and 320); 1 mM C14-betaine, 50 mM Tris-HCl pH 7.3, 100 mM NaCl, 2 mM TCEP, 33.4% D2O, 50,000 rpm, 25 °C, absorbance at 230 nm
# [2] = target: the molecule itself; assay: cross-linking; purified NS4A (12 uM) in POPC/POPS (4:1) liposomes, lipid-to-protein ratios 40, 100 and 250; DSS 0.03-1.0 mM, or DSG, BS3, DSS, EGS, DSP at 0.25 mM, 15 min; SDS-PAGE and anti-His-tag Western blot
# [3] = target: the molecule itself; assay: AUC; sedimentation equilibrium, multi-speed (15,000-33,000 rpm), 1 mM C14-betaine, 50 mM Tris-HCl pH 7.3, 100 mM NaCl, 2 mM TCEP, 33.4% D2O, absorbance at 280 nm; fitted in SEDPHAT; constant is of dimers to hexamer
protein,measurement,setting,value
B1,stoichiometry N,[1],2
same,stoichiometry N,[2],≥ 6
same,stoichiometry N,[3],6
